Paper PMC4679584

Biological target: tumor suppressor gene 101 (TSG101) tagged with eYFP (UniProt Q99816)
Experiment: FRET or BRET

UniProt Q99816, sequence (Q99816 whole entry): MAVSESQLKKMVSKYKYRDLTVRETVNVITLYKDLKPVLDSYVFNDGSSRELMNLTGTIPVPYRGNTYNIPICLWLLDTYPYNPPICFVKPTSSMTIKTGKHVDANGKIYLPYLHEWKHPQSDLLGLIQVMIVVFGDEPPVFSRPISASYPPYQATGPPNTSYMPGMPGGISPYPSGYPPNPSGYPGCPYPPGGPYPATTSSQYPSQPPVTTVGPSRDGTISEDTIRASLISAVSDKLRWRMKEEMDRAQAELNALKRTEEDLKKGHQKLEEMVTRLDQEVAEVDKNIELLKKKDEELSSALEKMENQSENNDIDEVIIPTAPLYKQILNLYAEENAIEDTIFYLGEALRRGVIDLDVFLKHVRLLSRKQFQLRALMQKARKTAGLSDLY

Substance: wild-type HEV ORF3 protein (Kernow-C1 P6, genotype 3) tagged with eCFP (natural protein)
- FRET efficiency: 21.5%
